We go through five molecules from patent publication US20150190494A1 (OXFORD UNIVERSITY INNOVATION, published 2015).

Assay [1] concerns the target T1, fH67 (UniProt P08603 321-443).
T1 construct: domain: fH67; Flowed as analyte over immobilised fHbps in SPR; also called factor H
T1 sequence: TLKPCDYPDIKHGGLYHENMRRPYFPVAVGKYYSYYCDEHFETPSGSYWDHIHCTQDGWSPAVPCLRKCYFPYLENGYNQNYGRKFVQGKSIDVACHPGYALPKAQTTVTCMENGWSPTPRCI
Kind of assay: SPR, fHbp immobilised on sensor chip, fH67 flowed over. (In SPR one partner is held on a chip, and binding of the other changes the refractive index at the surface.)
Description: Kd values for fH₆₇ binding to the stable V2 fHbps were calculated from the sensogram (fH₆₇ binding to WT V2 fHbp shown in Appendix 3a) and compared to fH₆₇ binding to WT V2 fHbp (Table 3).

For assay [2], the target named is T1, fH67. Kind of assay: SPR, fHbp immobilised on sensor chip, fH67 flowed over; mean ± SD of two determinations.

B1: WT V2 fHbp (other)
chain: CSSGGGGVAADIGAGLADALTAPLDHKDKSLQSLTLDQSVRKNEKLKLAAQGAEKTYGNGDSLNTGKLKNDKVSRFDFIRQIEVDGQLITLESGEFQIYKQDHSAVVALQIEKINNPDKIDSLINQRSFLVSGLGGEHTAFNQLPSGKAEYHGKAFSSDDPNGRLHYSIDFTKKQGYGRIEHLKTPEQNVELASAELKADEKSHAVILGDTRYGGEEKGTYHLALFGDRAQEIAGSATVKIREKVHEIGIAGKQ
notes: also called wild type V2 fHbp; V2WT
Take B1: the “Relative Kd” value in assay [1] came to 1 fold against WT V2 fHbp. The same molecule gave a Kd in assay [2] of 3.18 nM.

B2: M6 V2 fHbp (S35G/D107S/V112T/L114F/S137G/G138D) (other)
chain: CSSGGGGVAADIGAGLADALTAPLDHKDKGLQSLTLDQSVRKNEKLKLAAQGAEKTYGNGDSLNTGKLKNDKVSRFDFIRQIEVDGQLITLESGEFQIYKQSHSAVTAFQIEKINNPDKIDSLINQRSFLVGDLGGEHTAFNQLPSGKAEYHGKAFSSDDPNGRLHYSIDFTKKQGYGRIEHLKTPEQNVELASAELKADEKSHAVILGDTRYGGEEKGTYHLALFGDRAQEIAGSATVKIREKVHEIGIAGKQ
For B2, the “Relative Kd” value in assay [1] worked out at 19.3 fold against WT V2 fHbp. For the same molecule, the dissociation constant (Kd) in assay [2] turned out to be 61.3 nM.

B3: M4B V2 fHbp (S35G/L114F/S137G/G138D) (other)
chain: CSSGGGGVAADIGAGLADALTAPLDHKDKGLQSLTLDQSVRKNEKLKLAAQGAEKTYGNGDSLNTGKLKNDKVSRFDFIRQIEVDGQLITLESGEFQIYKQDHSAVVAFQIEKINNPDKIDSLINQRSFLVGDLGGEHTAFNQLPSGKAEYHGKAFSSDDPNGRLHYSIDFTKKQGYGRIEHLKTPEQNVELASAELKADEKSHAVILGDTRYGGEEKGTYHLALFGDRAQEIAGSATVKIREKVHEIGIAGKQ
As for B3, the “Relative Kd” value in assay [1] was 3.92 fold against WT V2 fHbp. For the same molecule, the affinity in assay [2], expressed as Kd, was 12.5 nM.

B4: M5 V2 fHbp (S35G/D107S/L114F/S137G/G138D) (other)
chain: CSSGGGGVAADIGAGLADALTAPLDHKDKGLQSLTLDQSVRKNEKLKLAAQGAEKTYGNGDSLNTGKLKNDKVSRFDFIRQIEVDGQLITLESGEFQIYKQSHSAVVAFQIEKINNPDKIDSLINQRSFLVGDLGGEHTAFNQLPSGKAEYHGKAFSSDDPNGRLHYSIDFTKKQGYGRIEHLKTPEQNVELASAELKADEKSHAVILGDTRYGGEEKGTYHLALFGDRAQEIAGSATVKIREKVHEIGIAGKQ
As to B4, the “Relative Kd” value in assay [1] stood at 3.84 fold against WT V2 fHbp. The molecule also registered a Kd in assay [2] of 12.2 nM.

B5: M4A V2 fHbp (S35G/D107S/S137G/G138D) (other)
chain: CSSGGGGVAADIGAGLADALTAPLDHKDKGLQSLTLDQSVRKNEKLKLAAQGAEKTYGNGDSLNTGKLKNDKVSRFDFIRQIEVDGQLITLESGEFQIYKQSHSAVVALQIEKINNPDKIDSLINQRSFLVGDLGGEHTAFNQLPSGKAEYHGKAFSSDDPNGRLHYSIDFTKKQGYGRIEHLKTPEQNVELASAELKADEKSHAVILGDTRYGGEEKGTYHLALFGDRAQEIAGSATVKIREKVHEIGIAGKQ
Regarding B5, in assay [1], the “Relative Kd” value was 2.39 fold against WT V2 fHbp. In addition, binding in assay [2] was characterised by a dissociation constant (Kd) of 7.6 nM.

The Kd is the free concentration of one partner at which half of the binding sites on the other are occupied at equilibrium, for simple one-to-one binding. Low values mean tighter binding, high ones weaker binding.
